Changes are numbered by the printed parent chain. Numbers in names are those of the source. Where two headings read alike, the source gives them in different places. Each block holds one binder with its values, some of them ahead of it.
Tests used:
[1] = target: T1, normal tau in wild type mouse brain (Wt) (mouse, UniProt P10637-2 1-430, limits assumed); experiment: immunohistochemistry on brain tissue sections
T1 construct: Control tissue in immunohistochemistry

[2] = target: T1, normal tau in wild type mouse brain (Wt); experiment: immunohistochemistry on brain tissue
[3] = target: T2, recombinant human tau, isoform Tau-F of 441 aa (hTau40) (human, UniProt P10636 1-758); experiment: direct ELISA on coated recombinant tau (rTau)
T2 construct: Bought from rPeptide (Bogart, GA, USA); coated on ELISA plates, blotted, or spotted as overlapping peptides; also called full-length tau; rTau
T2 sequence (P10636 other isoform, or with tags, fused parts or gaps limits assumed): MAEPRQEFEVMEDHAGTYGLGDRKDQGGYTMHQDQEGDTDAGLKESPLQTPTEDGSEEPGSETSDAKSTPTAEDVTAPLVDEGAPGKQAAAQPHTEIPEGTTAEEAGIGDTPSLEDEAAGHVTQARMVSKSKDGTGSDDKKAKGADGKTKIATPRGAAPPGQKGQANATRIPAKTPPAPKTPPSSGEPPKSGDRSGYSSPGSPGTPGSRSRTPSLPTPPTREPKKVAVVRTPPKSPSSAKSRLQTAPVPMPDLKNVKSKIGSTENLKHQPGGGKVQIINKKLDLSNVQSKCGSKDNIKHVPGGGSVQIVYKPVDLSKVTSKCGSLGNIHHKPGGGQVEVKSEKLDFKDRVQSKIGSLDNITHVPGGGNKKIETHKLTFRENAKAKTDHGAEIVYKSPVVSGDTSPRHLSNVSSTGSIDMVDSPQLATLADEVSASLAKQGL

[4] = target: T3, PHFTau (paired helical filaments containing pathologically phosphorylated tau filaments, extracted from AD … (human, UniProt P10636-8 1-441, limits assumed, pathologically phosphorylated (sites of the preparation not listed), aggregated filaments)); experiment: direct ELISA on coated PHFTau
T3 construct: Brain extract, not a single defined isoform; also called human PHF tau; pathologically modified PHFTau
T3 sequence (P10636 other isoform, or with tags, fused parts or gaps limits assumed): as above

[5] = target: T2, recombinant human tau, isoform Tau-F of …; experiment: direct ELISA, hTau40 coated at 1 ug/ml
Protocol: (§1) The EC₅₀ values were estimated by a non-linear regression using GraphPad Prism software.
ELISA plates were coated with recombinant human tau (hTau40, 1 ug/ml), PHFTau (1:100) and control preparation (1:100), and incubated with varying antibody concentrations.

[6] = target: T2, recombinant human tau, isoform Tau-F of …; experiment: binding of CHO-produced antibody to recombinant tau; format not stated
[7] = target: T2, recombinant human tau, isoform Tau-F of …; experiment: ELISA on recombinant Tau, absorbance at 450 nm
[8] = target: T2, recombinant human tau, isoform Tau-F of …; experiment: ELISA on recombinant Tau, absorbance at 450 nm; remark: listed apart in the source
[9] = target: T2, recombinant human tau, isoform Tau-F of …; experiment: direct ELISA, hTau40 coated at 3 ug/ml
Description: as §1

T1 sequence (P10637 other isoform, or with tags, fused parts or gaps limits assumed): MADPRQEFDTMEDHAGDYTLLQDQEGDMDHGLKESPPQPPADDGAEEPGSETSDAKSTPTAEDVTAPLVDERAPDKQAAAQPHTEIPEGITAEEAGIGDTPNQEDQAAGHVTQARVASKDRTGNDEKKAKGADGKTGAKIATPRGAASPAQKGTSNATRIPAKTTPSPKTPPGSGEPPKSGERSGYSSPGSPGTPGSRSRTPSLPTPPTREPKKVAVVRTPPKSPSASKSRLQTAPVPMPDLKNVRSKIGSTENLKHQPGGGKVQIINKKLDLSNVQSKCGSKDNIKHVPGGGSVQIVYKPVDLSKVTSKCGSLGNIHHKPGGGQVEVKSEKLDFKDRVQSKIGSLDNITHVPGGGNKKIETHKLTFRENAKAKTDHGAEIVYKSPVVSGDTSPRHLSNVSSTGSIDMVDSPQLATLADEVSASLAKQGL

binding result [1]: no binding
B1: recombinant human antibody NI-105.40E8 (NI-105.40E8-hIgG1, germlined) (antibody, V domains shown)
VH: EVQLVESGGGLVQPGGSLRLSCAASGFTFPNYVMTWVRQAPGKGLEWVSGISGSGGSTDYADSVKGRFTISRDNSKNTLYLQMNSLRVEDTALYYCAKGSGGIRGQGTMVTVSS
VL: QSALTQPRSVSGSPGQSVTISCTGTSSDVGGYNYVSWHQQHPGKAPKLLIYDVTKRPSGVPDRFSGSKSGNTAALTISGLQAEDEADYYCHSYVGSYTLVFGGGTKLTVLG
notes: Heavy chain is human IgG1

binding result [2]: no binding
EC50 [3]: 0.033 nM
EC50 [4]: 0.04 nM
B2: recombinant human antibody NI-105.6C5 (germlined) (antibody, human IgG1, V domains shown)
VH: QVQLVESGGGVVQPGRSLRVSCAASGFTFSSYDMHWVRQAPGKGLEWVAVIWFDGSNEFYADSVKGRFTISRDNSKNTLFLQMNSLRAEDTAVYYCARDLGASVTTSNAENFHHWGQGTLVTVSS
VL: SYELTQPPSVSVSPGQTARITCSGDALPKRYVYWYQQKSGQAPVLVIYEDSKRPSGIPETFSGSSSGTMATLTISGAQVEDEADYYCYSTDSNGHHWVFGGGTKLTVL

EC50 [5]: 2.4 nM
B3: recombinant human antibody NI-105.4E4 (antibody, V domains shown)
VH: EVQLVESGGGLVQPGGSLKLSCAASGFNFNISAIHWVRQASGKGLEWVGRIRSKSHNYATLYAASLKGRFTLSRDDSRNTAYLQMSSLQTEDMAVYYCTVLSANYDTFDYWGQGTLVTVSS
VL: LPVLTQPPSVSVSPGQTARISCFGDTLPKQYTYWYQQKPGQAPVLVIYKDTERPSGIPERFSGSSSGTTVTLTISGVQAEDEADYYCLSADNSATWVFGGGTKVTVL
modifications: Asn-30 of the VH carried an N-glycan when the chimeric ch4E4 was expressed in CHO cells; the letter is unchanged.
notes: Human antibody described in US 2012/0087861

fold higher apparent binding affinity relative to the original, glycosylated antibody (ch4E4) [6]: ~4 fold
B4: chimeric NI-105.4E4(N30Q) (ch4E4(N30Q)), mouse IgG2a/lambda (antibody, V domains shown)
VH: B3 VH with N30Q
VL: SYELTQPPSVSVSPGQTARISCFGDTLPKQYTYWYQQKPGQAPVLVIYKDTERPSGIPERFSGSSSGTTVTLTISGVQAEDEADYYCLSADNSATWVFGGGTKVTVLG
notes: Only the heavy chain of ch4E4 was changed (Asn-30 to Gln)

EC50 (read off the curve) [7]: ~0.3 µg/mL
EC50 (read off the curve) [8]: ~0.8 µg/mL
B5: ch17C1(N31Q) mIgG2a (antibody)
heavy: EVQLVQSGAEVKKPGESLKISCKAFGYSFTNFWIGWVRQVPGKGLEWVGIIYPGDSDTRYSPSFQGQVTISADKSIDTAYLQWGHLKASDSAMYFCARRGFWTGSQIEYWGQGTQVTVSSAKTTAPSVYPLAPVCGDTTGSSVTLGCLVKGYFPEPVTLTWNSGSLSSGVHTFPAVLQSDLYTLSSSVTVTSSTWPSQSITCNVAHPASSTKVDKKIEPRGPTIKPCPPCKCPAPNLLGGPSVFIFPPKIKDVLMISLSPIVTCVVVDVSEDDPDVQISWFVNNVEVHTAQTQTHREDYNSTLRVVSALPIQHQDWMSGKEFKCKVNNKDLPAPIERTISKPKGSVRAPQVYVLPPPEEEMTKKQVTLTCMVTDFMPEDIYVEWTNNGKTELNYKNTEPVLDSDGSYFMYSKLRVEKKNWVERNSYSCSVVHEGLHNHHTTKSFSRTPGK
light: QSALTQPPSASGSPGHSVTISCTGTSSDVGQYSFVSWYQQYPGKAPKIIIYDVSKRSSGVPDRFFGSKSANTASLTVSGVQEEDEADYFCSSYGGSKYPWVFGGGTKLTVLGQPKSSPSVTLFPPSSEELETNKATLVCTITDFYPGVVTVDWKVDGTPVTQGMETTQPSKQSNNKYMASSYLTLTARAWERHSSYSCQVTHEGHTVEKSLSRADCS

EC50 [5]: 1.4 nM
B6: recombinant human antibody NI-105.4A3 (antibody, V domains shown)
VH: EVQLVETGGGAVQPGGSLRLSCAASGFTFSDYAMHWVRQAPGKGLQWVAVISYEGTYKYYADSVKGRFTISRDNSKNTLNLQMSSLRVEDTAVYFCVKARAFASGQRSTSTVPDYWGQGTLVTVSS
VL: SYELTQPPSVSVSPGQTARITCSGDALPKKYAYWYQQKSGQAPVLVIYEDNKRPSGIPERFSGSSSGTVATLTISGAQVDDEADYYCYSTDISGDLRVFGGGTKLTVL
notes: Human antibody described in US 2012/0087861; used as cloned

EC50 [9]: 6.6 nM
B7: recombinant human antibody NI-105.24B2 (antibody, V domains shown)
VH: EVQLVQSGAEVKKPGASVKVSCKASGYTFVNYIIHWVRQAPGQGLEWMGIINPNGGNTSYAEKFQARVTLTSDTSTSTVYMDLSSLTSEDTAVYYCAVLSPSNPWGQGTTVTVSS
VL: SYVLTQPPSVSVSPGQTAGITCSGDALPKQFVYWYQKKPGQAPVLLIYKDTERPSRIPERFSGSTSGTTVALTINGVQAEDEADYYCQSADRSGALWVFGGGTKLTVL
notes: as for B6

binding result [1]: no binding
B8: recombinant human antibody NI-105.48E5 (germlined) (antibody, V domains shown)
VH: EVQLVESGGGLVQPGGSLKLSCAASGFTFSGSAMHWVRQASGKGLEWVGRIRSKANSYATAYAASVKGRFTISRDDSKNTAYLQMNSLKTEDTAVYYCTSPTVTTEVWGQGTLVTVSS
VL: not shown
notes: Complete recombinant human IgG1 by the methods
